Results taken from patent publication US20150086555A1.

B1: TCN-528 (5087_P17) (antibody, V domains shown)
VH: QVQLVQSGSEVKKPGASVKVSCKASGYTFTNYDINWIRQAPGQGLEWMGWINPNSGTTGSAQRFQGRVTITVDTSITTVYMELSSLRSDDTAIYYCARGRELLRLQHFLTDSQSERRDCFDPWGQGTLVTVSS
VL: DIQMTQSPSSLSASVGDRVTITCRANQDIGIYLNWYQQNPGKVPKLLLHGASSLQGGVPSRFSASGSGTDFTLTIHSLQPEDLATYYCQQSRRLPYTFGQGTRVELK
B2: TCN-527 (5086_C06) (antibody, V domains shown)
VH: QVQLQESGPGLVKPSETLSLNCAVSGGSISNYYWSWIRQPPGKGLEWIGYISYNGRPKYNPSLTSRVTISVDTSKDQFSLELRSVTAADTALYYCARETRFGELLSPYDAFEIWGQGTMVTVSS
VL: DIQMTQSPSSLSASVGDRVTMTCRASQNIRSYLNWYQQRPGTAPKLLIYAASTLHSGVPSRFSGGGSGTDFTLTINNLQPEDFASYYCQQSYDNPQTFGQGTKVEIK
B3: TCN-523 (5248_A17) (antibody, V domains shown)
VH: QVQLVQSGAEVKKPGSSVKVSCKASGGSFSNYAFSWVRQAPGQGLEWMGGTIPLLGTTNYAQKFQGRVTISADQFTSTAYMELGSLRSEDTAVYYCTRRKMTTAFDSWGQGTLVTVSS
VL: QPVLTQPPSASASLGASVTLTCTLSSAYSNYKVDWYQQRPGKGPRFVMRVGTGGIVGSKGDGIPDRFSVLGSGLNRYLTIKNIQEEDESDYHCGADHGSGSNFVSPYVFGGGTKLTVL
B4: TCN-522 (3212_I12) (antibody, V domains shown)
VH: QVQLQQWGAGLLKPSETLSLTCTVSGGSLTDYSWNWIRQPPGKGLEWIGDTLHNGYTNYNPSLRGRVSISIDTSKNQVSLRLTSVTAADTALYYCARGSGGYGGFDYFGKLRTWDFWGQGTLVTVSS
VL: DIQLTQSPSSLSASVGDRVTITCRASQGIRNDLGWYQQKPGNAPKRLIFGASSLQSGVPSRFSGSGSGTEFTLTISSLQPEDFATYYCLQHNSYPYTFGQGTKLEIK
B5: TCN-504 (3251_K17) (antibody, V domains shown)
VH: QVQLQESGPGLVKPSETLSLTCAVSGVSISNIDFYWGWIRQPPGKGLEWIGNIYYTGITFYNPSLSSRVAISIDTSKNQFSLTLTSVTAADTAMYYCARHYGDSEAINDAFDIWGQGTMLTVSS
VL: EIVMTQSPATLSVSPGERATLSCRASQSVGNSLAWYQQRPGQAPRLLIYGASTRATGIPPRFSGSGSGTEFTLTISSLQTEDFAVYYCQQYINWRPLSFGGGTKVEIK

target: recombinant homotrimeric HA A/duck/Yangzhou/02/05 H8N4 (Influenza A virus A/duck/Yangzhou/02/2005(H8N4)); assay: protein microarray, purified IgG, trimeric HA; settings: remark: other sources report otherwise

Binder	Trimeric HA Binding: RLU
B1	24100 RLU
B2	26000 RLU

target: recombinant homotrimeric HA A/swine/Ontario/01911-2/99 H4N6 (Influenza A virus A/Swine/Ontario/01911-2/99 (H4N6)); assay: protein microarray, purified IgG, trimeric HA; settings: remark: other sources report otherwise

Binder	Trimeric HA Binding: RLU
B3	85 RLU
B4	73 RLU
B1	9490 RLU
B2	11100 RLU

target: recombinant soluble homotrimeric HA of A/chicken/Vietnam/NCVD-016/08 (H5N1) (Influenza A virus A/chicken/Vietnam/NCVD-016/2008(H5N1)); assay: trimeric HA microarray, transfection supernatant set 2; settings: remark: other sources report otherwise

Binder	Trimeric HA Binding: RLU
B3	17600 RLU
B5	27300 RLU
B4	49300 RLU
B1	22600 RLU
B2	20100 RLU

target: recombinant soluble homotrimeric HA of A/California/4/09 (H1N1) (Influenza A virus A/California/04/2009(H1N1)); assay: as above; settings: remark: other sources report otherwise

Binder	Trimeric HA Binding: RLU
B3	18700 RLU
B5	15600 RLU
B4	37500 RLU
B1	44600 RLU
B2	21500 RLU

target: recombinant soluble homotrimeric HA of A/Anhui/1/05 (H5N1) (Influenza A virus A/Anhui/1/2005(H5N1)); assay: as above; settings: remark: other sources report otherwise

Binder	Trimeric HA Binding: RLU
B3	139 RLU
B5	31000 RLU
B4	2030 RLU
B1	21200 RLU
B2	15200 RLU

target: recombinant soluble homotrimeric HA of A/Solomon Islands/3/06 (H1N1) (Influenza A virus A/Solomon Islands/3/2006(H1N1)); assay: as above; settings: remark: other sources report otherwise

Binder	Trimeric HA Binding: RLU
B3	3270 RLU
B5	31400 RLU
B4	17300 RLU
B1	26900 RLU
B2	19700 RLU

target: recombinant soluble homotrimeric HA of A/Japan/305/57 (H2N2) (Influenza A virus A/Japan/305/1957(H2N2)); assay: as above; settings: remark: other sources report otherwise

Binder	Trimeric HA Binding: RLU
B3	882 RLU
B5	22600 RLU
B4	11900 RLU
B1	23100 RLU
B2	20800 RLU

target: T1, recombinant soluble homotrimeric HA of A/Egypt/3300-NAMRU3/08 (H5N1) (Influenza A virus A/Egypt/3300-NAMRU3/2008(H5N1)); assay: as above; settings: remark: other sources report otherwise

Binder	Trimeric HA Binding: RLU
B3	30700 RLU
B5	21400 RLU
B4	55400 RLU
B1	36800 RLU
B2	23600 RLU

target: recombinant soluble homotrimeric HA of A/Netherlands/219/03 (H7N7) (Influenza A virus A/Netherlands/219/03(H7N7)); assay: as above; settings: remark: other sources report otherwise

Binder	Trimeric HA Binding: RLU
B3	407 RLU
B5	19300 RLU
B4	2170 RLU
B1	47200 RLU
B2	49100 RLU

target: recombinant soluble homotrimeric HA of A/Vietnam/1203/04 (H5N1) (Influenza A virus A/VietNam/1203/2004(H5N1)); assay: as above; settings: remark: other sources report otherwise

Binder	Trimeric HA Binding: RLU
B3	26200 RLU
B5	15000 RLU
B4	48200 RLU
B1	23300 RLU
B2	20600 RLU

target: recombinant soluble homotrimeric HA of A/Indonesia/5/05 (H5N1) (Influenza A virus A/Indonesia/5/2005(H5N1)); assay: as above; settings: remark: other sources report otherwise

Binder	Trimeric HA Binding: RLU
B3	24500 RLU
B5	19700 RLU
B4	50500 RLU
B1	39700 RLU
B2	23400 RLU

target: recombinant soluble homotrimeric HA of A/South Carolina/1/18 (H1N1) (Influenza A virus A/South Carolina/1/18 (H1N1)); assay: as above; settings: remark: other sources report otherwise

Binder	Trimeric HA Binding: RLU
B3	25500 RLU
B5	24700 RLU
B4	39600 RLU
B1	25200 RLU
B2	48100 RLU

target: recombinant soluble homotrimeric HA, A/Indonesia/5/05 H5N1 (Influenza A virus A/Indonesia/5/2005(H5N1)); assay: microarray, transfection SN IgG, trimeric HA; settings: remark: other sources report otherwise

Binder	Trimeric HA Binding: RLU
B3	55000 RLU
B5	18500 RLU

target: recombinant soluble homotrimeric HA, A/Anhui/1/05 H5N1 (Influenza A virus A/Anhui/1/2005(H5N1)); assay: microarray, transfection SN IgG, trimeric HA; settings: remark: other sources report otherwise

Binder	Trimeric HA Binding: RLU
B3	6080 RLU
B5	37200 RLU

target: recombinant soluble homotrimeric HA, A/California/4/09 H1N1 (Influenza A virus A/California/04/2009(H1N1)); assay: microarray, transfection SN IgG, trimeric HA; settings: remark: other sources report otherwise

Binder	Trimeric HA Binding: RLU
B3	34400 RLU
B5	17600 RLU

target: recombinant soluble homotrimeric HA, A/Japan/305/57 H2N2 (Influenza A virus A/Japan/305/1957(H2N2)); assay: microarray, transfection SN IgG, trimeric HA; settings: remark: other sources report otherwise

Binder	Trimeric HA Binding: RLU
B3	22000 RLU
B5	23300 RLU

target: recombinant soluble homotrimeric HA, A/chicken/Vietnam/NCVD-016/08 H5N1 (Influenza A virus A/chicken/Vietnam/NCVD-016/2008(H5N1)); assay: microarray, transfection SN IgG, trimeric HA; settings: remark: other sources report otherwise

Binder	Trimeric HA Binding: RLU
B3	51300 RLU
B5	34200 RLU

target: recombinant soluble homotrimeric HA, A/northern shoveler/California/HKWF115/07 H6N4 (Influenza A virus A/northern shoveler/California/HKWF115/2007(H6N1)); assay: microarray, transfection SN IgG, trimeric HA; settings: remark: other sources report otherwise

Binder	Trimeric HA Binding: RLU
B3	46900 RLU

target: recombinant soluble homotrimeric HA, A/Hong Kong/156/97 H5N1 (Influenza A virus A/Hong Kong/156/97 (H5N1)); assay: microarray, transfection SN IgG, trimeric HA; settings: remark: other sources report otherwise

Binder	Trimeric HA Binding: RLU
B3	28400 RLU
B5	26600 RLU

target: recombinant soluble homotrimeric HA, A/Wisconsin/67/05 H3N2 (Influenza A virus A/Wisconsin/67/2005(H3N2)); assay: microarray, transfection SN IgG, trimeric HA; settings: remark: other sources report otherwise

Binder	Trimeric HA Binding: RLU
B5	38100 RLU

target: recombinant soluble homotrimeric HA, A/Egypt/3300-NAMRU3/08 H5N1 (Influenza A virus A/Egypt/3300-NAMRU3/2008(H5N1)); assay: microarray, transfection SN IgG, trimeric HA; settings: remark: other sources report otherwise

Binder	Trimeric HA Binding: RLU
B3	35500 RLU
B5	20600 RLU

target: recombinant soluble homotrimeric HA, A/Solomon Islands/3/06 H1N1 (Influenza A virus A/Solomon Islands/3/2006(H1N1)); assay: microarray, transfection SN IgG, trimeric HA; settings: remark: other sources report otherwise

Binder	Trimeric HA Binding: RLU
B3	37600 RLU
B5	30100 RLU

target: recombinant soluble homotrimeric HA, A/Netherlands/219/03 H7N7 (Influenza A virus A/Netherlands/219/03(H7N7)); assay: microarray, transfection SN IgG, trimeric HA; settings: remark: other sources report otherwise

Binder	Trimeric HA Binding: RLU
B5	30600 RLU

target: recombinant soluble homotrimeric HA, A/duck/Yangzhou/02/05 H8N4 (Influenza A virus A/duck/Yangzhou/02/2005(H8N4)); assay: microarray, transfection SN IgG, trimeric HA; settings: remark: other sources report otherwise

Binder	Trimeric HA Binding: RLU
B5	35100 RLU

target: recombinant soluble homotrimeric HA, A/South Carolina/1/18 H1N1 (Influenza A virus A/South Carolina/1/18 (H1N1)); assay: microarray, transfection SN IgG, trimeric HA; settings: remark: other sources report otherwise

Binder	Trimeric HA Binding: RLU
B3	52000 RLU
B5	32000 RLU

target: recombinant soluble homotrimeric HA, A/Vietnam/1203/04 H5N1 (Influenza A virus A/VietNam/1203/2004(H5N1)); assay: microarray, transfection SN IgG, trimeric HA; settings: remark: other sources report otherwise

Binder	Trimeric HA Binding: RLU
B3	27800 RLU
B5	21500 RLU

target: T1, recombinant soluble homotrimeric HA of …; assay: HA microarray, BCC supernatant; settings: remark: other sources report otherwise

Binder	Trimeric HA Binding: RLU
B3	36500 RLU
